For assay [1], the target named is GLP-1R on CHO cells (CHO/GLP-1R). The assay is described as follows: cell-based or functional assay.
For assay [2], the target named is T1, Chinese hamster ovary (CHO) cell-derived soluble recombinant human G-CSF receptor (human, UniProt Q99062 25-627).
T1 construct: extracellular domain; Immobilised by amine coupling on the sensor chip; also called soluble human G-CSF receptor; R&D Systems 381-050/CF
T1 sequence (looked up): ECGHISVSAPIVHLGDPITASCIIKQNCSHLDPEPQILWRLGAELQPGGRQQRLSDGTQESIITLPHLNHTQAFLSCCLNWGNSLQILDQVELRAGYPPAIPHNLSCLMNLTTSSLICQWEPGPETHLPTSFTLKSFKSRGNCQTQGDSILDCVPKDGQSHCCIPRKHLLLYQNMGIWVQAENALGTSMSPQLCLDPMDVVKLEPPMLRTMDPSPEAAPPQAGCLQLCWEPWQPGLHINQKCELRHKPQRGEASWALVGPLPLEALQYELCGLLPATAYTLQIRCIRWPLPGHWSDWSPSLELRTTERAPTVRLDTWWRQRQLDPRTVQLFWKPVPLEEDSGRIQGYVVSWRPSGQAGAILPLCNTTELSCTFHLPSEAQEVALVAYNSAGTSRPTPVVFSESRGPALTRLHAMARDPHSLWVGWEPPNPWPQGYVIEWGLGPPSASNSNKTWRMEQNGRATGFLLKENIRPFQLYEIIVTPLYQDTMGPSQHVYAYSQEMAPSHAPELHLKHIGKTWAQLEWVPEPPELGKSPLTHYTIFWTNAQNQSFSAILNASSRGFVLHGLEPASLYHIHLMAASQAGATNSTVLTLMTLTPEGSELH
The assay is described as follows: SPR (BIAcore 3000), receptor amine-coupled to the chip, analyte 6.25-100 nmol/L, 25 °C, 1:1 Langmuir fit.
Source text: Surface plasmon resonance technology and the BIAcore 3000 biosensor (GE healthcare) were employed to measure in vitro binding affinity to the G-CSF receptor. Amine-coupling chemistry was used to immobilize the G-CSF receptor on CMS biosensor chip. […] The CMS sensor chip surface was activated by injecting a 1:1 mixture of 0.1 mol/L N-hydroxysuccinimide (GE healthcare) and 0.1 mol/L 3-(N,N-dimethylamino)propyl-N-ethylcarbodiamide (GE Healthcare). […] The chip surface was then blocked with ethanolamine/HCl (GE Healthcare), pH 8.5, and washed with a regeneration solution (50 mmol/L NaCl; 5 mmol/L NaOH). […] Binding affinity was calculated using the 1:1 Langmuir fitting model for each test material.

Assay [3] addresses T2, Fc fragment of eflapegrastim (human, UniProt P01861 107-325 = IgG part, aglycosylated (made in recombinant E. coli cells)).
T2 construct: tested alone, without PEG and G-CSF; also called aglycosylated IgG4-Fc fragment; immunoglobulin Fc fragment
Nature of the assay: ELISA with GST-FcγRIIB, detection with anti-GST antibody. The protocol: For C1q, FcγRIIB, FcγRIIIA, and FcRn binding assays, serial dilutions of the test materials were added to 96-well microplates coated with C1q, or GST fusion proteins of FcγRIIB or FcγRIIIA, or FcRn αβ2. After incubation and washing, HRP-conjugated anti-C1q antibody was added for C1q binding assay, and rabbit-anti-GST antibody and HRP-conjugated anti-rabbit IgG antibody were sequentially added for FcγRIIB, FcγRIIIA, and FcRn binding assays. The absorbance was measured at 450 nm as described above for FcγRI binding assay.
On the technique in general: ELISA stands for enzyme-linked immunosorbent assay.

T2 sequence (P01861 other isoform, or with tags, fused parts or gaps limits assumed): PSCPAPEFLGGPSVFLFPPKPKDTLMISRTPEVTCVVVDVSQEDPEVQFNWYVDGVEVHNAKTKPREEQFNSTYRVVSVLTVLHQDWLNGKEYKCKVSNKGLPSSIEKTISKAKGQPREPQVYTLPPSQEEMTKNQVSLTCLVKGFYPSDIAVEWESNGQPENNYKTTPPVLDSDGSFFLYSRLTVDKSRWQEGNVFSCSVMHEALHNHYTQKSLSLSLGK

On to “CA Exendin (lysine)-PEG-(lysine) Fc (Fc fusion)”, for which, in assay [1], the % vs. Experimental group, CHO/GLP-1R bioassay turned out to be 16.1% and the EC50 (ng/ml), in vitro activity-CHO/GLP-1R bioassay came out at 59000 ng/mL.

B1: pegfilgrastim (ligand, human, UniProt P09919-2 31-204, looked up)
chain: TPLGPASSLPQSFLLKCLEQVRKIQGDGAALQEKLCATYKLCHPEELVLLGHSLGIPWAPLSSCPSQALQLAGCLSQLHSGLFLYQGLLQALEGISPELGPTLDTLQLDVADFATTIWQQMEELGMAPALQPTQGAMPAFASAFQRRAGGVLVASHLQSFLEVSYRVLRHLAQP
modifications: N-terminal methionine residue pegylated with a 20 kDa polyethylene glycol
notes: Commercial product; also called Neulasta
Regarding B1, in assay [2], the dissociation constant (Kd) (commonly the free concentration of one partner at which half of the binding sites on the other are occupied at equilibrium, for simple one-to-one binding) was found to be 2.9 nM.

B2: GST fusion protein of FcγRIIB (receptor, UniProt P31994 43-217, looked up)
chain: TPAAPPKAVLKLEPQWINVLQEDSVTLTCRGTHSPESDSIQWFHNGNLIPTHTQPSYRFKANNNDSGEYTCQTGQTSLSDPVHLTVLSEWLVLQTPHLEFQEGETIVLRCHSWKDKPLVKVTFFQNGKSKKFSRSDPNFSIPQANHSHSGDYHCTGNIGYTLYSSKPVTITVQAP
notes: Order of receptor and GST unknown; not shown: GST
Take B2: in assay [3], the binding result is “no binding”.

The values above are taken from patent US20230027238A1 (SPECTRUM PHARMACEUTICALS, published 2023).
